Source: patent publication US6673354B2, “Compositions and methods for treating papillomavirus-infected cells” (priority 1998, dated 2004)
Where no end group is shown, it is not given here.

Tests used:
[1] = target: T1, interaction between HPV16 E1 and E2 (Human papillomavirus type 16, UniProt P03114); assay: In vitro HPV E1-E2 binding assay (co-immunoprecipitation / Western blot), HPV16 E1 and HPV16 E2; details: increasing peptide concentrations, FIG. 6A
T1 construct: made in house; host or cells: Hi-Five insect cells infected with recombinant baculovirus (pVL1392); nuclear extracts
T1 sequence (P03114 whole entry, looked up): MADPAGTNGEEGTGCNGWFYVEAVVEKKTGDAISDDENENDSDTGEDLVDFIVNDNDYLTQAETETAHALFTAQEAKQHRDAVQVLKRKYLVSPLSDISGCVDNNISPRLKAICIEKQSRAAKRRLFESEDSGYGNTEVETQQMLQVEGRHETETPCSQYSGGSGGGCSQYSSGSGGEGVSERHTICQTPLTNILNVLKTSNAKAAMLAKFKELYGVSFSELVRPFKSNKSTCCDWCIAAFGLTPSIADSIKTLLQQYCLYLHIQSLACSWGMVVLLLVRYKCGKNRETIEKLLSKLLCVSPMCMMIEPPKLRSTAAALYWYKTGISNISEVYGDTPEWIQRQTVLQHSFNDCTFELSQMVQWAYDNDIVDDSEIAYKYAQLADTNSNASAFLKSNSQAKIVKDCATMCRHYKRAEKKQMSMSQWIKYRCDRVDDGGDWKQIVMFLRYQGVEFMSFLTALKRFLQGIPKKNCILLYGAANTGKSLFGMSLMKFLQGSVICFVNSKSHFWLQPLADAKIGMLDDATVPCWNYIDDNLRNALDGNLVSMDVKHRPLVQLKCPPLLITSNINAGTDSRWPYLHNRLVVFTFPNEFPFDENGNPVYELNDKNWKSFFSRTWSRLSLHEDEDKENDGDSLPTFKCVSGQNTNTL
Method: In vitro HPV E1-E2 binding assay. 300-500 ng protein from HPV16 or HPV11 EE-E1 expressing recombinant baculovirus infected cell nuclear extracts and 80-120 ng from HPV E2 baculovirus infected cell nuclear extracts were incubated in 500 μl NET-gel buffer (50 mM Tris-HCl pH7.5, 150 mM NaCl, 0.1% NP-40, 1 mM EDTA, 0.25% gelatin) at 4° C. for one hour. 1-2 μg anti-EE monoclonal antibody was added and incubated with shaking at 4° C. for one hour. Immune complexes were precipitated with protein-G agarose beads and washed twice for 30 minutes with ice cold NET-gel buffer. Precipitated proteins were detected by Western blot using appropriate primary antibodies and anti-rabbit IgG HRP or anti-mouse IgG HRP (Amersham). Membranes were blocked for one hour in TNET (10 mM Tris 7.5, 2.5 mM EDTA, 50 mM NaCl, 0.1% Tween-20) containing 4% (w/v) dry milk. Washes and antibody reactions were carried out in TNET, and proteins were visualized by chemiluminescence (Reneaissance ECL, NEN) and autoradiography. Bands were quantitated using the NIH image program.
Therefore, we reasoned that a peptide encompassing this domain of HPV16 E2 might inhibit interaction between HPV16 E1 and E2, thereby inhibiting HPV16 DNA replication (FIG. 5). In order to test this possibility, HPV16 E2 and epitope tagged full length HPV16 E1 (EE16-E1) proteins were expressed separately using baculovirus vectors. EE-E1 and associated E2 proteins were immunoprecipitated using an anti-EE epitope monoclonal antibody. Precipitated E2 was detected by Western blot using polyclonal antiserum raised to the DNA binding domain of HPV16 E2 (35). As shown in lane 2 of FIG. 6A, E2 co-immunoprecipitated with EE16-E1, but was not precipitated by the EE epitope antibody in the absence of EE16-E1 (lane 1). Peptides encompassing HPV16 E2 amino acids 29-51 (E2N-WP23) or residues 33-47 (E2N-WP15) of HPV16 E2 were then tested for inhibition of E1-E2 interaction. These peptide sequences were derived from the sequence of HPV16 E2, and were based on an alignment of amino terminal residues that are conserved among the papillomavirus E2 proteins (FIG. 5). […] Both the HPV16 E2 protein itself and the E2 derived peptides act specifically in these assays, since the E39A replication defective HPV16 E2 mutant bound only slightly to EE16-E1 (lanes 14). […] These peptides are named E2N-MP23 and E2N-MP15, respectively (see FIG. 5). […] We have previously shown that a domain spanning amino acids 421-647 of the HPV16 E1 carboxy terminus is necessary and sufficient for E2 interaction (45).

[2] = tested on: in vitro HPV16 DNA replication; assay: In vitro replication of HPV16 DNA (293 cell extract, EE-E1, HPV16 E2); type: biochemical; details: 40 ng EE-E1 and 6 ng HPV16 E2, FIG. 7
Method: In vitro replication reactions. In vitro replication reactions were essentially as described by Kuo et al. (18) in 25 μl reactions at 37° C. for indicated times. Standard reactions were for 2 hours, and were terminated by addition of 200 μl stop solution (20 mM Tris-HCl pH 7.5, 10 mM EDTA, 0.1% SDS, and 20 μg/ml RNase A). After incubation at 37° C. for 15 minutes, proteinase K was added (200 μg/ml) and incubation was continued 30 minutes. Samples were extracted with 250 μl phenol/chloroform/isoamyl alcohol (25:24:1), ethanol precipitated, washed with 70% ethanol, dried, resuspended in 20-30μl TE, and analyzed on a 0.8% agarose gel (TAE). The agarose gel was dried onto Hybond N+ membrane (Amersham), and replicated DNA was visualized by autoradiography. Bands were quantitated by Phosphorimager analysis. Replication templates were pKS7838-7905 (nt7838-7905/1-130) containing the HPV16 replication origin, and pUC7874-99 containing the HPV11 origin of replication (nt7874-7933/1-99). pUC7874-99 was a generously provided by Dr. Louise Chow.
We sought to establish a system for the study of HPV16 DNA replication in vitro, and to determine whether specific interaction between HPV16 E1 and E2 was required for HPV16 DNA replication in this system. […] As has been documented for other papillomavirus E1 proteins, some replication was observed using relatively large amounts of E1 in the absence of E2 (lanes 2 through 7) (6, 16, 22, 33, 40, 48). […] Replication in this assay is ori-dependent, since the small amount of replication of the pKS plasmid lacking the HPV16 origin detected at high concentrations of EE-E1 (FIG. 3B, lanes 1-6) was not stimulated by E2 (FIG. 1B, lanes 7-12).
Since the E2N-WP23 and E2N-WP 15 peptides could inhibit interaction between […] E1 and E2, their ability to inhibit in vitro HPV16 DNA replication was also tested (FIGS. 7A and 7B).

For WKHMRLACAIYYKAR [E2N-MP15], the “inhibition of HPV16 E1-E2 interaction” value [1] was “did not inhibit E1-E2 interaction at concentrations at which the wild type peptide could do so” and the “inhibition of in vitro HPV16 DNA replication” value [2] was “wild type peptides inhibited replication much more effectively than the respective E39A substituted analog”.
